Here are results for one molecule from patent US20140219978A1 (published 2014).

In assay [1] the target is T1, gp100 peptide on HLA-A*02:01 (human).
T1 peptide: ITDQVPFSV
Kind of assay: multimer staining.

The target of assay [2] is none (gp100-negative cells) peptide on HLA-A2 (human). Nature of the assay: RNA-electroporated human PBL with HLA-A2+ gp100-negative melanoma A375; 31 pg/ml for transduced PBL in Table 7; text: did not recognize melanoma cell lines not expressing gp100; full-length, on cells. The note with it: chains Valpha:Vbeta.

B1: Sp(0.01)A TCR (TCR, V domains shown)
Valpha: QQKVQQSPESLIVPEGAMTSLNCTFSDSASQYFAWYRQHSGKAPKALMSIFSNGEKEEGRFTIHLNKASLHFSLHIRDSQPSDSALYLCAANNYAQGLTFGLGTRVSVFP
Vbeta: EAAVTQSPRSKVAVTGGKVTLSCHQTNNHDYMYWYRQDTGHGLRLIHYSYVADSTEKGDIPDGYKASRPSQENFSLILELASLSQTAVYFCASSPGGGGEQYFGPGTRLTVL
Take B1: the binding result in assay [1] is reported as “no recognition”. This molecule had an IFN-gamma release in assay [2] of 45 pg/mL.
